From US7183110B2, “Antibody immunoreactive with a 5-enolpyruvylshikimate-3-phosphate synthase” (Monsanto Technology LLC, priority 1990, dated 2007) come the findings set out here.

A word on the Km: it is the concentration of substrate that gives half-maximal velocity.

The test system of one series is LBAA EPSPS. Description: appKm and appKi of LBAA EPSPS wild type and G100A variant in E. coli crude lysates. It counts as biochemical, Achromobacter sp. strain LBAA. Conditions: range of PEP: 2–40 μM. From the text:
One difference that may be noted between the deduced amino acid sequences of the CP4 and LBAA EPSPS proteins is at position 100 where an Alanine is found in the case of the CP4 enzyme and a Glycine is found in the case of the LBAA enzyme. In the Class I EPSPS enzymes a Glycine is usually found in the equivalent position, i.e Glycine96 in E. coli and K. pneumoniae and Glycine101 in Petunia. In the case of these three enzymes it has been reported that converting that Glycine to an Alanine results in an elevation of the appKi for glyphosate and a concomitant elevation in the appKm for PEP (Kishore et al., 1986; Kishore and Shah, 1988; Sost and Amrhein, 1990), which, as discussed above, makes the enzyme less efficient especially under conditions of lower PEP concentrations. The Glycine100 of the LBAA EPSPS was converted to an Alanine and both the appKm for PEP and the appKi for glyphosate were determined for the variant. The Glycine100Alanine change was introduced by mutagenesis using the following primer:
and both the wild type and variant genes were expressed in E. coli in a RecA promoter expression vector (pMON17201 and pMON17264, respectively) and the appKm's and appKi's determined in crude lysates. […] However, in contrast to the results in the Class I G-A variants, the appKm(PEP) in the Class II (LBAA) G-A variant is unaltered. […]

The next series relates to EPSPS enzymes. Description: Kinetic characterization of EPSPS enzymes (Km PEP, Ki glyphosate). It counts as biochemical. Conditions: for Ki/Km: Ki glyphosate / Km PEP; for Km: Km of the EPSPS enzyme for phosphoenolpyruvate, PEP ranges tested in table footnotes. How it is done: The EPSPS enzymes from these microorganisms were then subjected to further study and analysis.
When the change introduced into the Petunia EPSPS (GA101) was introduced into a number of other EPSPS enzymes, similar changes in kinetics were observed, an elevation of the Ki for glyphosate and of the Km for PEP.
All protein purification procedures were carried out at 3–5° C. EPSPS enzyme assays were performed using either the phosphate release or radioactive HPLC method, as previously described in Padgette et al., 1987, using 1 mM phosphoenol pyruvate (PEP, Boehringer) and 2 mM shikimate-3-phosphate (S3P) substrate concentrations. For radioactive HPLC assays, ^14C-PEP (Amersham) was utilized. S3P was synthesized as previously described in Wibbenmeyer et al. 1988. N-terminal amino acid sequencing was performed by loading samples onto a Polybrene precycled filter in aliquots while drying. Automated Edman degradation chemistry was used to determine the N-terminal protein sequence, using an Applied Biosystems Model 470A gas phase sequencer (Hunkapiller et al., 1983) with an Applied Biosystems 120A PTH analyzer.

Series [1] deals with rabbit anti-EPSPS antibody. Description: Western analysis with rabbit anti-EPSPS antibody to the Petunia EPSPS protein. It counts as binding. Conditions: crude extracts 50 μg protein; control Petunia EPSPS 20 ng; Protein A-125I development. An excerpt:
The presence of EPSPS activity in these extracts was confirmed by enzyme assay. This surprising result, indicating a lack of similarity between the EPSPS's from these bacterial isolates and those previously studied, coupled with the combination of a low Km for PEP and a high Ki for glyphosate, illustrates that these new EPSPS enzymes are different from known EPSPS enzymes (now referred to as Class I EPSPS).

A further series concerns the target T1, CP4 EPSPS (Agrobacterium sp., UniProt Q9R4E4, S2A).
T1 construct: made in house; host or cells: E. coli, PRecA-gene10L vector
Briefly: EPSPS activity from native and synthetic CP4 EPSPS genes expressed in E. coli. It counts as biochemical, Agrobacterium sp. strain CP4. From the text: A synthetic CP4 gene was designed to change as completely as possible those inimical sequences discussed above. In summary, the gene sequence was redesigned to eliminate as much as possible the following sequences or sequence features (while avoiding the introduction of unnecessary restriction sites): stretches of G's and C's of 5 or greater; and A+T rich regions (predominantly) that could function as polyadenylation sites or potential RNA destabilization region The sequence of this gene is shown in FIG. 8 (SEQ ID NO:9). This coding sequence was expressed in E. coli from the RecA promoter and assayed for EPSPS activity and compared with that from the native CP4 EPSPS gene. […] The N-terminus of the coding sequence was mutagenized to place an SphI site at the ATG to permit the construction of the CTP2-CP4 synthetic fusion for chloroplast import. The following primer was used to accomplish this mutagenesis:
The EPSPS gene was isolated originally from Agrobacterium sp. strain CP4 and expresses a highly tolerant enzyme. The original gene contains sequences that could be inimical to high expression of the gene in some plants. […] The high G+C % in the CP4 EPSPS gene could also result in the formation of strong hairpin structures that may affect expression or stability of the RNA. A plant preferred version of the gene was synthesized and used for these vectors. This coding sequence was expressed in E. coli from a PRecA-gene10L vector (Olins et al., 1988) and the EPSPS activity was compared with that from the native CP4 EPSPS gene. […] The N-terminus of the coding sequence was then mutagenized to place an SphI site (GCATGC) at the ATG to permit the construction of the CTP2-CP4 synthetic fusion for chloroplast import. This change had no apparent effect on the in vivo activity of CP4 EPSPS in E. coli as judged by complementation of the aroA mutant. A CTP-CP4 EPSPS fusion was constructed between the Arabidopsis thaliana EPSPS CTP (Klee et al., 1987) and the CP4 EPSPS coding sequences. The Arabidopsis CTP was engineered by site-directed mutagenesis to place a SphI restriction site at the CTP processing site. This mutagenesis replaced the Glu-Lys at this location with Cys-Met. The CTP2-CP4 EPSPS fusion was tested for import into chloroplasts isolated from Lactuca sativa using the methods described previously (della-Cioppa et al., 1986: 1987).

T1 sequence (Q9R4E4 whole entry S2A): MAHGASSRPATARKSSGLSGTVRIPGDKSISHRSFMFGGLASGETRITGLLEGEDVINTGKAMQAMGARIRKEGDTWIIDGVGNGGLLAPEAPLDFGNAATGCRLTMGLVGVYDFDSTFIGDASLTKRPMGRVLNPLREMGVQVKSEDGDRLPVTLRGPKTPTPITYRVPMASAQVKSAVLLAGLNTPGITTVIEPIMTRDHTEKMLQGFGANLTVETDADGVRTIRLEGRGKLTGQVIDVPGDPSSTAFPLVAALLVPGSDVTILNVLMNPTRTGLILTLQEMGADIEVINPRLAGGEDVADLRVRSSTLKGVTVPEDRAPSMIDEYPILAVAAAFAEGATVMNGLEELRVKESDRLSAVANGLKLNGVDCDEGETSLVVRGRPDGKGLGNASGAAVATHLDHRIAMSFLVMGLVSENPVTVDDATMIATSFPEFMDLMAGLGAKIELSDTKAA

B1: LBAA: Class II EPSPS enzyme from Achromobacter sp. strain LBAA (SEQ ID NO:5); wild type gene expressed from pMON17201 (protein, listed as Agrobacterium sp.)
chain: MSHSASPKPATARRSEALTGEIRIPGDKSISHRSFMFGGLASGETRITGLLEGEDVINTGRAMQAMGAKIRKEGDVWIINGVGNGCLLQPEAALDFGNAGTGARLTMGLVGTYDMKTSFIGDASLSKRPMGRVLNPLREMGVQVEAADGDRMPLTLIGPKTANPITYRVPMASAQVKSAVLLAGLNTPGVTTVIEPVMTRDHTEKMLQGFGADLTVETDKDGVRHIRITGQGKLVGQTIDVPGDPSSTAFPLVAALLVEGSDVTIRNVLMNPTRTGLILTLQEMGADIEVLNARLAGGEDVADLRVRASKLKGVVVPPERAPSMIDEYPVLAIAASFAEGETVMDGLDELRVKESDRLAAVARGLEANGVDCTEGEMSLTVRGRPDGKGLGGGTVATHLDHRIAMSFLVMGLAAEKPVTVDDSNMIATSFPEFMDMMPGLGAKIELSIL
On to B1, for which the “appKm(PEP)” value with LBAA EPSPS stood at 5.3 µM. For the same molecule, in the series on EPSPS enzymes, the Ki/Km is ~7.9 and the Km fell in the range of 7.3 to 8 µM. Moreover, the “signal in Western analysis with rabbit anti-EPSPS antibody” value (from here on “signal in Western analysis”) in series [1] is “no positive signal could be detected”.

B2: CP4: Class II EPSPS enzyme from Agrobacterium sp. strain CP4 (SEQ ID NO:3) (protein, listed as Agrobacterium sp.)
chain: MSHGASSRPATARKSSGLSGTVRIPGDKSISHRSFMFGGLASGETRITGLLEGEDVINTGKAMQAMGARIRKEGDTWIIDGVGNGGLLAPEAPLDFGNAATGCRLTMGLVGVYDFDSTFIGDASLTKRPMGRVLNPLREMGVQVKSEDGDRLPVTLRGPKTPTPITYRVPMASAQVKSAVLLAGLNTPGITTVIEPIMTRDHTEKMLQGFGANLTVETDADGVRTIRLEGRGKLTGQVIDVPGDPSSTAFPLVAALLVPGSDVTILNVLMNPTRTGLILTLQEMGADIEVINPRLAGGEDVADLRVRSSTLKGVTVPEDRAPSMIDEYPILAVAAAFAEGATVMNGLEELRVKESDRLSAVANGLKLNGVDCDEGETSLVVRGRPDGKGLGNASGAAVATHLDHRIAMSFLVMGLVSENPVTVDDATMIATSFPEFMDLMAGLGAKIELSDTKAA
For B2, the “appKm for PEP” value with CP4 EPSPS (expressed in E. coli from a PRecA-gene10L vector) came to 11.8 µM. Further, the Michaelis-Menten constant (Km) in the series with CP4 EPSPS (expressed in E. coli from the RecA promoter, read-out: apparent Km for PEP) came to 11.8 µM. Moreover, in the series with EPSPS enzymes, the Ki/Km came out at 227 and the Km worked out at 12 µM. In addition, the “signal in Western analysis” value in series [1] is reported as “no positive signal could be detected”.

B3: Petunia: native Petunia EPSPS, a Class I EPSPS (protein)
chain: KPSEIVLQPIKEISGTVKLPGSKSLSNRILLLAALSEGTTVVDNLLSSDDIHYMLGALKTLGLHVEEDSANQRAVVEGCGGLFPVGKESKEEIQLFLGNAGTAMRPLTAAVTVAGGNSRYVLDGVPRMRERPISDLVDGLKQLGAEVDCFLGTKCPPVRIVSKGGLPGGKVKLSGSISSQYLTALLMAAPLALGDVEIEIIDKLISVPYVEMTLKLMERFGISVEHSSSWDRFFVRGGQKYKSPGKAFVEGDASSASYFLAGAAVTGGTITVEGCGTNSLQGDVKFAEVLEKMGAEVTWTENSVTVKGPPRSSSGRKHLRAIDVNMNKMPDVAMTLAVVALYADGPTAIRDVASWRVKETERMIAICTELRKLGATVEEGPDYCIITPPEKLNVTDIDTYDDHRMAMAFSLAACADVPVTINDPGCTRKTFPNYFDVLQQYSKH
modifications: Petunia x hybrida
Turning to B3, in the series with EPSPS enzymes, the Ki/Km amounted to 0.08 and the Michaelis-Menten constant (Km) came to 5 µM. For the same molecule, in series [1], the “signal in Western analysis” value is given as “readily detected”.
